Measured values taken from patent publication US20180155451A1 (published 2018).

T1: FcγRIIb (human, UniProt P31994 43-217)
T1 construct: extracellular domain; also called FcgRIIb; 2b
T1 sequence (looked up): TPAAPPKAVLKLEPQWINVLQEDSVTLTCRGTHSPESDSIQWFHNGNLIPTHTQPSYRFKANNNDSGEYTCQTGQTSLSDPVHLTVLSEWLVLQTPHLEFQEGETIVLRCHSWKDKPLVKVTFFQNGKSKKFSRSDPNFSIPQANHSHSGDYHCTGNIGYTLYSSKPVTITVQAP

B1: GpH7-A5/GpH7-B3 variant (E269_01G)/GpL16-k0 (antibody, human IgG1, kappa)
heavy 1: not shown
heavy 2: not shown
light: DIVMTQSPLSLPVTPGEPASISCQASESLVHSNRNTYLHWYLQKPGQSPQLLIYKVSNRFSGVPDRFSGSGSGTDFTLKISRVEAEDVGVYYCSQNTHVPPTFGQGTKVEIERTVAAPSVFIFPPSDEQLKSGTASVVCLLNNFYPREAKVQWKVDNALQSGNSQESVTEQDSKDSTYSLSSTLTLSKADYEKHKVYACEVTHQGLSSPVTKSFNRGEC
notes: IgG1 heterodimer, mutation in the GpH7-B3 chain only; also called He Ab
B2: GpH7-A5/GpH7-B3 variant (G236_02A)/GpL16-k0 (antibody, human IgG1, kappa)
heavy 1: not shown
heavy 2: not shown
light: B1 light
notes: as for B1
B3: GpH7-A5/GpH7-B3 variant (E269_13S)/GpL16-k0 (antibody, human IgG1, kappa)
heavy 1: not shown
heavy 2: not shown
light: B1 light
notes: as for B1
B4: GpH7-A5/GpH7-B3 variant (E269_03V)/GpL16-k0 (antibody, human IgG1, kappa)
heavy 1: not shown
heavy 2: not shown
light: B1 light
notes: as for B1
B5: GpH7-A5/GpH7-B3 variant (E269_07I)/GpL16-k0 (antibody, human IgG1, kappa)
heavy 1: not shown
heavy 2: not shown
light: B1 light
notes: as for B1
B6: GpH7-A5/GpH7-B3 variant (G236_05P)/GpL16-k0 (antibody, human IgG1, kappa)
heavy 1: not shown
heavy 2: not shown
light: B1 light
notes: as for B1
B7: GpH7-A5/GpH7-B3 variant (E269_04F)/GpL16-k0 (antibody, human IgG1, kappa)
heavy 1: not shown
heavy 2: not shown
light: B1 light
notes: as for B1
B8: GpH7-A5/GpH7-B3 variant (G236_14T)/GpL16-k0 (antibody, human IgG1, kappa)
heavy 1: not shown
heavy 2: not shown
light: B1 light
notes: as for B1
B9: GpH7-A5/GpH7-B3 variant (E269_16H)/GpL16-k0 (antibody, human IgG1, kappa)
heavy 1: not shown
heavy 2: not shown
light: B1 light
notes: as for B1
B10: GpH7-A5/GpH7-B3 variant (G236_04F)/GpL16-k0 (antibody, human IgG1, kappa)
heavy 1: not shown
heavy 2: not shown
light: B1 light
notes: as for B1
B11: GpH7-A5/GpH7-B3 variant (E269_02A)/GpL16-k0 (antibody, human IgG1, kappa)
heavy 1: not shown
heavy 2: not shown
light: B1 light
notes: as for B1
B12: GpH7-A5/GpH7-B3 variant (G236_08L)/GpL16-k0 (antibody, human IgG1, kappa)
heavy 1: not shown
heavy 2: not shown
light: B1 light
notes: as for B1
B13: GpH7-A5/GpH7-B3 variant (E269_20W)/GpL16-k0 (antibody, human IgG1, kappa)
heavy 1: not shown
heavy 2: not shown
light: B1 light
notes: as for B1
B14: GpH7-A5/GpH7-B3 variant (D265_10E)/GpL16-k0 (antibody, human IgG1, kappa)
heavy 1: not shown
heavy 2: not shown
light: B1 light
notes: as for B1
B15: GpH7-A5/GpH7-B3 variant (E269_14T)/GpL16-k0 (antibody, human IgG1, kappa)
heavy 1: not shown
heavy 2: not shown
light: B1 light
notes: as for B1
B16: GpH7-A5/GpH7-B3 variant (L235_12R)/GpL16-k0 (antibody, human IgG1, kappa)
heavy 1: not shown
heavy 2: not shown
light: B1 light
notes: as for B1
B17: GpH7-A5/GpH7-B3 variant (G236_15Y)/GpL16-k0 (antibody, human IgG1, kappa)
heavy 1: not shown
heavy 2: not shown
light: B1 light
notes: as for B1
B18: GpH7-A5/GpH7-B3 variant (G236_03V)/GpL16-k0 (antibody, human IgG1, kappa)
heavy 1: not shown
heavy 2: not shown
light: B1 light
notes: as for B1

Each binder was assayed against T2, FcγRIa (human, UniProt P12314 16-292) (assay: SPR, captured antibody; relative to GpH7-A5/GpH7-B3/GpL16-k0).
T2 construct: extracellular domain; also called FcgRI; 1a
T2 sequence (P12314 16-292): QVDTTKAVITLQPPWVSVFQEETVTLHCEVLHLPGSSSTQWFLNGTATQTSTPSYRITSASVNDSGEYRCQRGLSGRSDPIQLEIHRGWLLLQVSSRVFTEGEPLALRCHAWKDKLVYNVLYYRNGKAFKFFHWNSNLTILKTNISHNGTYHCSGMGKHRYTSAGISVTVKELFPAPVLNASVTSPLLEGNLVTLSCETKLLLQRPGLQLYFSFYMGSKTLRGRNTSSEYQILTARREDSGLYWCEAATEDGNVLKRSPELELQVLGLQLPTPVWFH

He/Con_1a	Binder
104 relative, HeCon Ab = 100	B1
100 relative, HeCon Ab = 100	B2
103 relative, HeCon Ab = 100	B3
103 relative, HeCon Ab = 100	B4
103 relative, HeCon Ab = 100	B5
77 relative, HeCon Ab = 100	B6
103 relative, HeCon Ab = 100	B7
92.2 relative, HeCon Ab = 100	B8
106 relative, HeCon Ab = 100	B9
96.4 relative, HeCon Ab = 100	B10
104 relative, HeCon Ab = 100	B11
79.6 relative, HeCon Ab = 100	B12
105 relative, HeCon Ab = 100	B13
101 relative, HeCon Ab = 100	B14
106 relative, HeCon Ab = 100	B15
78 relative, HeCon Ab = 100	B16
92.5 relative, HeCon Ab = 100	B17
89.9 relative, HeCon Ab = 100	B18

What follows are binders tested against T1, FcγRIIb in the same assay as above.

He/Con_2b	Binder
51.5 relative, HeCon Ab = 100	B1
96.5 relative, HeCon Ab = 100	B2
47.8 relative, HeCon Ab = 100	B3
45.1 relative, HeCon Ab = 100	B4
43.9 relative, HeCon Ab = 100	B5
19 relative, HeCon Ab = 100	B6
45 relative, HeCon Ab = 100	B7
57.8 relative, HeCon Ab = 100	B8
38.5 relative, HeCon Ab = 100	B9
39.3 relative, HeCon Ab = 100	B10
49.9 relative, HeCon Ab = 100	B11
26.8 relative, HeCon Ab = 100	B12
42.5 relative, HeCon Ab = 100	B13
38.2 relative, HeCon Ab = 100	B14
50.6 relative, HeCon Ab = 100	B15
39.5 relative, HeCon Ab = 100	B17
35.3 relative, HeCon Ab = 100	B18
